Read-outs that look alike come from different tables or passages of the source.

Consider 13 molecules from patent US20050232917 (published 2005).

Test [1] has as its target MAdCAM-IgG1 Fc fusion (human). In words: competition, JY cell adhesion.
Test [2] concerns the target MAdCAM-IgG1 Fc fusion (human). Briefly: SPR, protocol 1. In general terms: SPR reads the build-up and loss of mass on a sensor chip optically.
Test [3] deals with T1, human MAdCAM (on CHO cells) (human, UniProt Q13477).
T1 chain: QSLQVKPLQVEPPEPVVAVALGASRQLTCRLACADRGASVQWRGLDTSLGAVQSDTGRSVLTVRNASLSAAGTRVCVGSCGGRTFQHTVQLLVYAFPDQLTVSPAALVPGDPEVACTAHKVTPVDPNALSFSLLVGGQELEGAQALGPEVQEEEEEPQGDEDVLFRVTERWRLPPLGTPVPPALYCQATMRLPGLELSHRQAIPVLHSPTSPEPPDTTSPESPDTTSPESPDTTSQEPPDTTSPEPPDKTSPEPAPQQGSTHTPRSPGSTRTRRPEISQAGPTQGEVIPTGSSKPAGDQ
In words: competition, JY cell adhesion to CHO.

For test [4], the target named is T2, cynomolgus/human MAdCAM chimera (on CHO cells) (cynomolgus/human).
T2 chain: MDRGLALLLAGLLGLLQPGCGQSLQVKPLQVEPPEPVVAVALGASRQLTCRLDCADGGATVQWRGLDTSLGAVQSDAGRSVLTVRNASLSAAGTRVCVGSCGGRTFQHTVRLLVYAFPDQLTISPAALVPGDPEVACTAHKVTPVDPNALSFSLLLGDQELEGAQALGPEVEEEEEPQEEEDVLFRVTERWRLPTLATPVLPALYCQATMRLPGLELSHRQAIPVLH
In words: competition, JY cell adhesion to CHO.

Another test has as its target T3, mouse MAdCAM (mouse, UniProt Q61826).
T3 chain: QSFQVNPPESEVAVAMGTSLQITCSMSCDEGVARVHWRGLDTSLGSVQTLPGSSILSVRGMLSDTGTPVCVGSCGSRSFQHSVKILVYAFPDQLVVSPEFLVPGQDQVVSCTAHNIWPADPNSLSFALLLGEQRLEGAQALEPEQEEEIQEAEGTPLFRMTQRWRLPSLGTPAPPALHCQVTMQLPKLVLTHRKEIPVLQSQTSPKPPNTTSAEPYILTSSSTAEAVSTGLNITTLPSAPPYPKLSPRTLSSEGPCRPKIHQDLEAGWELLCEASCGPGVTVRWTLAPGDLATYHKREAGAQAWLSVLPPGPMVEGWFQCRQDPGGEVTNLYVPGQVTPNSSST
In words: ELISA. (ELISA stands for enzyme-linked immunosorbent assay.)

Test [5] concerns the target MAdCAM-IgG1 Fc fusion (human). In words: SPR, protocol 2.
Test [6] addresses T2, cynomolgus/human MAdCAM chimera (on CHO …). In words: FACS. On the technique in general: A flow cytometer gives signals particle by particle.
Test [7] addresses MAdCAM-IgG1 Fc fusion (human). In words: competition, JY cell adhesion. This is another data set of the same source.

MAdCAM-IgG1 Fc fusion (human), sequence (chain, as listed by the source): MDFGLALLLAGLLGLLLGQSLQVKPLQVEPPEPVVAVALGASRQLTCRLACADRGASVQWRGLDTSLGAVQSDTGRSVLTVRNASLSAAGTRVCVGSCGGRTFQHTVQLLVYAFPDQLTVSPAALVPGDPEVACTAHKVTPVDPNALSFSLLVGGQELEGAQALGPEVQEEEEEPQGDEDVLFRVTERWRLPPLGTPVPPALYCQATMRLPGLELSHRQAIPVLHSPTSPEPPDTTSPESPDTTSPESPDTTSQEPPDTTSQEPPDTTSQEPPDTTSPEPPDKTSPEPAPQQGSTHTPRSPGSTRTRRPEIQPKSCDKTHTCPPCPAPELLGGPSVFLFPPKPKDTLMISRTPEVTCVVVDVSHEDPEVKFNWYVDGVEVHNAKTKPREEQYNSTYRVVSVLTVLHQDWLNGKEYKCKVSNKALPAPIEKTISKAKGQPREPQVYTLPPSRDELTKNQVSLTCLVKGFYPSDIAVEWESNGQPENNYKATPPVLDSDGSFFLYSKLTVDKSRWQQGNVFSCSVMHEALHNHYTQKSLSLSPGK

B1: 1.8.2 (antibody, V domains shown)
VH: EVQLVESGGGLVKPGGSLRLSCVVSGFTFTNAWMIWVRQAPGKGLEWVGRIKRKTDGGTTDYAAPVKGRFTISRDDSKNTLYLQMNSLKTEDTAVYYCTTGGVAEDYWGQGTLVTVSS
VL: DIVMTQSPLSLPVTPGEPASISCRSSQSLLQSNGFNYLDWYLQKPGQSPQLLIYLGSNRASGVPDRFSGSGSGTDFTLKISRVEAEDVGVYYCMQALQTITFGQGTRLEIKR
As to B1, the figures for the IC50 (in the test with MAdCAM-IgG1 Fc fusion [1]; in test [3]) were 0.027 µg/mL and 0.424 µg/mL, respectively. Further, the equilibrium dissociation constant (Kd) with MAdCAM-IgG1 Fc fusion [2] worked out at 0.035 nM.

B2: 1.7.2 (antibody, V domains shown)
VH: EVQLVESGGGLVKPGGSLRLSCVASGFTFTNAWMIWVRQAPGKGLEWVGRIKRKTDGGTTDYAAPVKGRFTISRDDSKNTLYLQMNSLKTEDTAVYYCTTGGVAEDYWGQGTLVTVSS
VL: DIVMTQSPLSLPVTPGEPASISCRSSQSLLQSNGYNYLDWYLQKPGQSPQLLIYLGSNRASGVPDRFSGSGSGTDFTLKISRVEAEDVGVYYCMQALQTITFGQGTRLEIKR
As for B2, the IC50 with MAdCAM-IgG1 Fc fusion [1] was 0.03 µg/mL; in test [3], 0.502 µg/mL. In the test with MAdCAM-IgG1 Fc fusion [2], this molecule showed a Kd of 0.042 nM.

B3: 6.67.1 (antibody, V domains shown)
VH: QVQLQESGPGLVKPSETLSLTCTVSGDSISSNYWSWIRQPAGKGLEWIGRIYTSGGTNSNPSLRGRVTILADTSKNQFSLKLSSVTAADTAVYYCARDRITIIRGLIPSFFDYWGQGTLVTVSS
VL: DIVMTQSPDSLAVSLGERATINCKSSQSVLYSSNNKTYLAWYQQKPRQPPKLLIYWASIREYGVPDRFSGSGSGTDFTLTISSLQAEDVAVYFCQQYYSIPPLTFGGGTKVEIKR
For the molecule B3, the IC50 in test [4] is 0.75 µg/mL; in test [3] it was 0.298 µg/mL.

B4: 6.14.2 (antibody, V domains shown)
VH: EVQLLESGGGLVQPGGSLRLSCAASGLTFNNSAMTWVRQAPGKGLEWVSTTSGSGGTTYYADSVKGRFTISRDSPKNTLYLQMNSLRAEDTAVYYCAARGYSYGTTPYEYWGQGTLVTVSS
VL: MDMRVPAQLLGLLLLWLRGARCDIQMTQSPSSLSASVGDRVTITCRASRSISSYLNWYQQKPGKAPKVLIFFVSSLQSGVPSRFSGSGSGTDFTLTISSLQPEDFATYYCQQNYIPPITFGQGTRLEIRR
For B4, the results for the IC50 (with MAdCAM-IgG1 Fc fusion [1]; in test [4]; in test [3]) were 0.011 µg/mL, 0.53 µg/mL and 0.291 µg/mL, respectively. Also, the binding result with mouse MAdCAM is given as “no binding”. The Kd in the test with MAdCAM-IgG1 Fc fusion [5] was < 0.01 nM; with MAdCAM-IgG1 Fc fusion [2], 0.0077 nM.

B5: 7.26.4 (antibody, V domains shown)
VH: QVQLVQSGAEVKKPGASVKVSCEASGYTFTSYGIDWVRQAPGQGLEWMGWISVYSGNTNYAQKLQGRVTMSTDTSTSTAYMELRSLRSDDTAVYYCAREGSSSSGDYYYGMDVWGQGTTVTVSS
VL: DIVMTQTPLSLSVTPGQPASISCKSNQSLLYSDGKTYLFWYLQKPGQPPQLLIYEVSNRFSGVPDRFSGSGSGTDFTLKISRVEAEDVGVYYCMQSIQLPWTFGQGTKVEIKR
Take B5: the IC50 amounted to 0.96 µg/mL in test [4] and 0.574 µg/mL in test [3].

B6: 7.16.6 (antibody, V domains shown)
VH: QVQLVQSGAEVKKPGASVKVSCKASGYTFTSYGINWVRQAPGQGLEWMGWISVYSGNTNYAQKVQGRVTMTADTSTSTAYMDLRSLRSDDTAVYYCAREGSSSSGDYYYGMDVWGQGTTVTVSS
VL: DIVMTQTPLSLSVTPGQPASISCKSSQSLLHTDGTTYLYWYLQKPGQPPQLLIYEVSNRFSGVPDRFSGSGSGTDFTLKISRVEAEDVGIYYCMQNIQLPWTFGQGTKVEIKR
B6: the IC50 with MAdCAM-IgG1 Fc fusion [1] is 0.019 µg/mL; in test [4], 0.72 µg/mL. Further, the Kd with MAdCAM-IgG1 Fc fusion [5] was determined as 0.0048 nM; in the test with MAdCAM-IgG1 Fc fusion [2], 0.0015 nM.

B7: 6.77.1 (antibody, V domains shown)
VH: EVQLVESGGGLVKPGGSLRLSCAASGFTFSSYSMNWVRQAPGKGLEWVSSISSSSSYIYYADSVKGRFTISRDNAKNSLYLQMNSLRAEDTAVYYCARDGYSSGWSYYYYYGMDVWGQGTTVTVSS
VL: DIVMTQTPLSLSVTPGQPASISCNSSQSLLLSDGKTYLNWYLQKPGQPPQLLIYEVSNRFSGVPDRFSGSGSGTDFTLKISRVEAEDVGVYSCMQSIQLMCSFGQGTKLEIKR
Take B7: the IC50 worked out at 0.64 µg/mL in test [4] and 0.52 µg/mL in test [3]. The Kd in the test with MAdCAM-IgG1 Fc fusion [2] is 0.0067 nM.

B8: 6.22.2 (antibody, V domains shown)
VH: QVQLVESGGGVVQPGRSLRLSCAASGHTFSSDGMHWVRQAPGKGLEWVAIIWYDGSNKYYADSVKGRFTISRDNSKNTLYLQMNSLRAEDTAVYYCARDPGYYYGMDVWGQGTTVTVSS
VL: EIVLTQSPDFQSVTPKEKVTITCRASQRIGSSLHWYQQKPDQSPKLLIKYASQSFSGVPSRFSGSGSGTNFTLTINGLEAEDAATYYCHQSGRLPLTFGGGTKVEIKR
As to B8, the IC50 in test [4] was 0.83 µg/mL; in test [3], 0.573 µg/mL.

B9: 7.20.5 (antibody, V domains shown)
VH: QVQLQESGPGLVKPSETLSLTCTVSGSSISSYHWNWIRQPAGKGLEWIGRIYTSGSTNYNPSLKSRVTMSLDTSKNQFSLKLSSVTAADTAVYYCAREGVRYYYASGSYYYGLDVWGQGTTVTVSS
VL: not shown
Take B9: the IC50 came to 0.62 µg/mL in test [4] and 0.387 µg/mL in test [3].

B10: 6.73.2 (antibody, V domains shown)
VH: EVQLLESGGDLVQPGGSLRLSCAASGFTFRSYAMNWVRQAPGKGLEWVSVISGRGGTTYYADSVKGRFTISRDNSKNTLYLQMNSLRAEDAAVYYCAKIAVAGEGLYYYYGMDVWGQGTTVTVSS
VL: MDMRVPAQLLGLLLLWLRGARCDIQMTQSPSSLSASVGDRVTFTCRASQNITNYLNWYQQKPGKAPKLLIYAASSLPRGVPSRFRGSGSGTDFTLTISSLQPEDFATYYCQQSYSNPPECGFGQGTTLDIKR
Take B10: the IC50 in the test with MAdCAM-IgG1 Fc fusion [1] came to 0.02 µg/mL; in test [3], 0.369 µg/mL. Further, the binding result (with mouse MAdCAM; in test [6]) was “no binding” each time. Also, the Kd in the test with MAdCAM-IgG1 Fc fusion [2] is 0.093 nM.

B11: 6.34.2 (antibody, V domains shown)
VH: QVQLVESGGGVVQPGRSLRLSCAASGFTFSSYGMHWVRQAPGKGLEWVAVISNDGNNKYYADSVKGRFTISRDNSKNTLYLQMNSLSAEDTAVYYCARDSTAITYYYYGMDVWGQGTTVTVSS
VL: MDMRVPAQLLGLLLLWLRGARCDIQMTQSPSSLSASVGDRVTITCRASQNISSYLNWFQQKPGKAPKLLIYAASGLKRGVPSRFSGSGSGTDFTLTIRTLQPDDFATYSCHQSYSLPFTFGPGTKVDIKR
With B11, the IC50 in the test with MAdCAM-IgG1 Fc fusion [1] worked out at 0.013 µg/mL; in the test with MAdCAM-IgG1 Fc fusion [7], 0.013 µg/mL; in test [4], 0.47 µg/mL; in test [3], 0.285 µg/mL. Moreover, the binding result with mouse MAdCAM was “no binding”. Also, the Kd is < 0.015 nM in the test with MAdCAM-IgG1 Fc fusion [5] and 0.0158 nM in the test with MAdCAM-IgG1 Fc fusion [2].

B12: 6.34.2-mod (antibody, V domains shown)
VH: QVQLVESGGGVVQPGRSLRLSCAASGFTFSSYGMHWVRQAPGKGLEWVAVISNDGNNKYYADSVKGRFTISRDNSKNTLYLQMNSLRAEDTAVYYCARDSTAITYYYYGMDVWGQGTTVTVSS
VL: MDMRVPAQLLGLLLLWLRGARCDIQMTQSPSSLSASVGDRVTITCRASQSISSYLNWYQQKPGKAPKLLIYAASGLKRGVPSRFSGSGSGTDFTLTISSLQPEDFATYYCHQSYSLPFTFGPGTKVDIKR
The molecule B12 had an IC50 with MAdCAM-IgG1 Fc fusion [7] of 0.049 µg/mL.

B13: 9.8.2 (antibody, V domains shown)
VH: QVQLVESGGGVVQPGRSLRLSCAASGFTFSSYGMHWVRQAPGKGLEWVAVIWYDGSNEYYADSVKGRFTISRDNSKNTLYLQMNSLRAEDTAVYYCARGAYHFAYWGQGTLVTVSS
VL: DMRVPAQLLGLLLLWLSVAGARCDIQMTQSPSSLSASVGDRVTITCQASQDISNYLNWYQQKPGKAPKLLIYDASNLETGVPSRFSGSGSGTDFTFTISSLQPEDIATYSCQHSDNLSITFGQGTRLEIKR
Consider B13, for which the IC50 with MAdCAM-IgG1 Fc fusion [1] came to 0.02 µg/mL; in test [4] it was 0.83 µg/mL; in test [3], 0.44 µg/mL. Further, the binding result in the test with mouse MAdCAM is “no binding”. Besides, the Kd with MAdCAM-IgG1 Fc fusion [5] came out at 0.0325 nM; in the test with MAdCAM-IgG1 Fc fusion [2] it was 0.1 nM.

A word on the IC50: it is the concentration that gives 50% inhibition. Lower therefore signals greater potency. A word on the Kd: it is the equilibrium constant for the complex coming apart. Higher therefore signals weaker binding.
